These results are taken from patent US20230212613.

Data set [1] relates to TRAC TALEN right monomer (artificial). The experiment in a line: cell_activity. To be noted: as TALEN pair with left monomer; primary human T cells, plateau by 72 h.
For data set [2], the system named is TRAC TALEN left monomer (artificial). The experiment in a line: cell_activity. The conditions noted are these: as TALEN pair with right monomer; primary human T cells, plateau by 72 h.

“GGTACAGGTAAGAGCAA (double strand) [TRAC TALEN right half-site]”: the activity in data set [1] was 90 % indels.
Sequence “TTCCTCCTACTCACCAT (double strand) [TRAC TALEN left half-site]” had an activity in data set [2] of 90 % indels.
